Target: human full-length Sirt1 (human) (UniProt Q96EB6)
Sequence (Q96EB6 whole entry): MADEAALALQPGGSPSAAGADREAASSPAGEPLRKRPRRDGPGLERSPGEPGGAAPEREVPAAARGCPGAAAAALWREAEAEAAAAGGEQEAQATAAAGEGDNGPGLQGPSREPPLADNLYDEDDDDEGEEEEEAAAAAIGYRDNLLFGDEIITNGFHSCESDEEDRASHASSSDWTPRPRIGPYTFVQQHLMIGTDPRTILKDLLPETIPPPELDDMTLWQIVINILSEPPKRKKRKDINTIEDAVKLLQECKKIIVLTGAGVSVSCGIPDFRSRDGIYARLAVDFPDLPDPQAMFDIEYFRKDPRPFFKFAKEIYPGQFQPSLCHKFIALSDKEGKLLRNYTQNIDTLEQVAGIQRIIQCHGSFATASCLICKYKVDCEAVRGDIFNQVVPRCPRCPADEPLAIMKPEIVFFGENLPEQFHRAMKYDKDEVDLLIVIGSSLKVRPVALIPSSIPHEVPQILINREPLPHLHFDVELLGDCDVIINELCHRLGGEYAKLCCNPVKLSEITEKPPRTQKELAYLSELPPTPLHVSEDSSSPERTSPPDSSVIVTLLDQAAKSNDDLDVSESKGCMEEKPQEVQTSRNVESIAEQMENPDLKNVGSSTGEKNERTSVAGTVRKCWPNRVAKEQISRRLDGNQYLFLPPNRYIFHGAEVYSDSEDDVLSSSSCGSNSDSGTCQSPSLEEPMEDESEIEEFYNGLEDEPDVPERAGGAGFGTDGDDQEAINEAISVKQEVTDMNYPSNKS

Row | Substance | inhibition of fl-Sirt1 in the FdL assay at 100 µM FdL-1; IC50 [µM] | inhibition of fl-Sirt1 in the FdL assay at 100 µM FdL-1; potency (IC50) [µM]
1 | Tat-Cys^−-(1–63) (from UniProt P12506 1-63) (domain or fragment) | 10 | 
2 | Tat-Cys^−-(21–63) (from UniProt P12506 21-63) (domain or fragment) |  | 30
